Test results reported in patent US20230146939A1, “TREATMENT FOR HUMAN CORONAVIRUS INFECTION” (THE ADMINISTRATORS OF THE TULANE EDUCATIONAL FUND, priority 2020, published 2023).

Target: α5β1 integrin, P08648
Assay: competition ELISA, α5β1-coated plate, inhibition of trimeric spike binding

Sequence of α5β1 integrin, P08648 (P08648 42-995, chain 1 of 2): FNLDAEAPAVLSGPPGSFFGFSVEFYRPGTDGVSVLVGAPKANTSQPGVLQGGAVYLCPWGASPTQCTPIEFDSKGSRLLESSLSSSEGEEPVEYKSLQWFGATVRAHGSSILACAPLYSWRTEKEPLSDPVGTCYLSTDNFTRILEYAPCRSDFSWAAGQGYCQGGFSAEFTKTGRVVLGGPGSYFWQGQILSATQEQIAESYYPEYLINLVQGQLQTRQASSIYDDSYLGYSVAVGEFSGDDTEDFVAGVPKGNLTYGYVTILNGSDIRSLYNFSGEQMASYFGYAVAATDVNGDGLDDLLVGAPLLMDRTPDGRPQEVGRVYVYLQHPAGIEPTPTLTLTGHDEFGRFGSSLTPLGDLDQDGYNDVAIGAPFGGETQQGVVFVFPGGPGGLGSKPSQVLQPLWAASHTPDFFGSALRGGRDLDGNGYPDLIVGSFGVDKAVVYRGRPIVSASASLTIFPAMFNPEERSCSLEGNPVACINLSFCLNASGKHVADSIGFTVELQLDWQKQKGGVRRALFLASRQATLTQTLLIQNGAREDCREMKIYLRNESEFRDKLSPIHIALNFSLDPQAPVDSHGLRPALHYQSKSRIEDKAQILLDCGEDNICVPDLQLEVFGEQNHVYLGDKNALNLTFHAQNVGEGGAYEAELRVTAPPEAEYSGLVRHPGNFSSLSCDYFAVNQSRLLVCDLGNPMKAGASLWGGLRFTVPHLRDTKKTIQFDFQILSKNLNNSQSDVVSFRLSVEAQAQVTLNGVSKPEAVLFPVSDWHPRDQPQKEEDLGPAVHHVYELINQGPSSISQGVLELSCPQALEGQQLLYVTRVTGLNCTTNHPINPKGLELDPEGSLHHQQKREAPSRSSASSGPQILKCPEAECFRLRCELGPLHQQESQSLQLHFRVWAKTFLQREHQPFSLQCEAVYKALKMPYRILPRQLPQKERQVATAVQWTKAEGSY
Sequence of α5β1 integrin, P08648 (P05556 21-728, chain 2 of 2, further chain): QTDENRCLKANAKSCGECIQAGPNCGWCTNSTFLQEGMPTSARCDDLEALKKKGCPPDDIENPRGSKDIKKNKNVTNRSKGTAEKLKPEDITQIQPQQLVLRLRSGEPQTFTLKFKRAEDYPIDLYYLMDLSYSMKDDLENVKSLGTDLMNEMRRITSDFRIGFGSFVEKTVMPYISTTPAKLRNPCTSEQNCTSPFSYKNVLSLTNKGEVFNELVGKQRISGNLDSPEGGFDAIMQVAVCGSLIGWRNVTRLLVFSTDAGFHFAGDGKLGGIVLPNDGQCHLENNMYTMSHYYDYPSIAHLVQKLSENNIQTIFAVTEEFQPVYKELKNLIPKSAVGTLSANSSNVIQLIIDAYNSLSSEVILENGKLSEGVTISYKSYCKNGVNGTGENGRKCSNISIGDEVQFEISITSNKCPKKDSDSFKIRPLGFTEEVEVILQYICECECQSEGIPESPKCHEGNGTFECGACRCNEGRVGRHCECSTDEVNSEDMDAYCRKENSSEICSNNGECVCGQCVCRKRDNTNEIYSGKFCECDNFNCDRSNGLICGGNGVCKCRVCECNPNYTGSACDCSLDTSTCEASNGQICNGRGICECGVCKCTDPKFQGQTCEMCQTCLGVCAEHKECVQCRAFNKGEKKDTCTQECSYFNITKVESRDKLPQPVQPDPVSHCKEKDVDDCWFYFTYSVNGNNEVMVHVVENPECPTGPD

PHSCN (modifications not checked) [ATN-161]
most effective dose tested: 100 nM
